For one molecule, ATPase activity of HSP70 (EnzChek phosphate assay; 45 μg HSP70 with 8.9 μg HSP40 against HSP70 alone) results are on record in publication PMC8262983.

In the assay the target is recombinant 6×His-HSP70 (P. falciparum).

B1: recombinant 6×His-HSP40 (natural protein)
chain: MFFSSGFPFDSMGGQQARRKREVNNNKFYEVLNLKKNCTTDEVKKAYRKLAIIHHPDKGGDPEKFKEISRAYEVLSDEEKRKLYDEYGEEGLENGEQPADATDLFDFILNAGKGKKKRGEDIVSEVKVTLEQLYNGATKKLAISKDIICTNCEGHGGPKDAKVDCKQCNGRGTKTYMRYHSSVLHQTEVTCNTCRGKGKIFNEKDKCANCKGMCVLKTRKIIEVYIPKGAPNKHKIVFNGEADEKPNVITGNLVVILNEKQHPVFRREGIDLFMNYKISLYESLTGFVAEVTHLDERKILVNCTNSGFIRHGDIREVLDEGMPTYKDPFKKGNLYITFEVEYPMDLIITNENKEVLKILKKQNEVEKKYDLENSELEVVSCSPVDKEYIKVRVTKQQQQQQQEAYDDEDHQPEMEGGRVACAQQ
Consider B1, for which the ATPase activity of HSP70 (EnzChek phosphate assay; 45 μg HSP70 with 8.9 μg HSP40 against HSP70 alone) was 3 fold.
